Test results: patent publication US20110059159A1

How the values were obtained:
[1] = target: holotransducin (Gt) (bovine) (UniProt P04695); assay: cell-based or functional assay
[2] = target: Chemokine Receptor 5 (CCR5) with an engineered 1D4 epitope at the C-terminal tail (UniProt P51681); assay: sandwich ELISA, 2D7 capture, HRP-1D4 detection; CCR5 solubilised in 1% (w/v) DDM
[3] = target: Chemokine Receptor 5 (CCR5) with an engineered 1D4 epitope at the C-terminal tail (UniProt P51681); assay: sandwich ELISA, 2D7 capture, HRP-1D4 detection; CCR5 reconstituted into NABBs with POPC and zap1 (sample 7)
[4] = target: Chemokine Receptor 5 (CCR5) with an engineered 1D4 epitope at the C-terminal tail (UniProt P51681); assay: cell-based or functional assay

Chain of holotransducin (Gt) (bovine) (P04695 2-350, chain 1 of 3): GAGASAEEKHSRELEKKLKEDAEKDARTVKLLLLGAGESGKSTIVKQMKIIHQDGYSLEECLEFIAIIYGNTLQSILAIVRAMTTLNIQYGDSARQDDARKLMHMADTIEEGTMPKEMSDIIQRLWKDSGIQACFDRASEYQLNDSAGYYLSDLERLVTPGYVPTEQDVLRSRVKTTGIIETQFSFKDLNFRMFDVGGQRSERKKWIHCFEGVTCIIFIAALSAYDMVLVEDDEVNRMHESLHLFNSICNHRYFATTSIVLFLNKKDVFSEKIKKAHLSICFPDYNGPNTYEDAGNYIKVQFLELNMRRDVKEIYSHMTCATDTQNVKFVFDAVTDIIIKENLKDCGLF
Chain of holotransducin (Gt) (bovine) (P62871 2-340, chain 2 of 3, further chain): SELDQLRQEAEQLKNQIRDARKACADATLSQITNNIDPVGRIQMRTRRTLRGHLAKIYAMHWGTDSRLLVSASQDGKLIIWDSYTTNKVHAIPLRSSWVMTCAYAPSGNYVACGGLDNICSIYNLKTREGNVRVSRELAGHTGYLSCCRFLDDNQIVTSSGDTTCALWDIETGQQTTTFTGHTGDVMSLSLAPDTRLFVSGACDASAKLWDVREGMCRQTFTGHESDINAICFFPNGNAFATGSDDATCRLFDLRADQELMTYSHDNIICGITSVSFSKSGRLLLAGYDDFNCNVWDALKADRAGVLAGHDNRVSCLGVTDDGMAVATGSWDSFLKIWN
Chain of holotransducin (Gt) (bovine) (P02698 2-71, chain 3 of 3, further chain): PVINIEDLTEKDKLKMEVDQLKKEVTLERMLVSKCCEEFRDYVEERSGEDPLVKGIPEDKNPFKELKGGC

rhodopsin incorporated in NABBs (from UniProt P02699 1-348) (receptor)
apparent pseudo first-order rate constant (kobs) of transducin activation, 1 rho-NABB [1]: 0.006 s⁻¹ | apparent pseudo first-order rate constant (kobs) of transducin activation, 2rho-NABB [1]: 0.003 s⁻¹

2D7 antibody
ELISA signal relative to sample 1 (% of sample 1) [2]: 65 | ELISA signal relative to sample 1 (% of sample 1) [3]: 92

RANTES (from UniProt P13501 24-91) (ligand)
enhancement of B-GTPγS binding to the G protein [4]: < 30%
